Data on 16 molecules can be found in US20160333101A1 (GENOR BIOPHARMA, published 2016).

T1: RANK on RAW264.7 cells (mouse (RAW264.7 cells), UniProt O35305 31-625)
T1 sequence (looked up): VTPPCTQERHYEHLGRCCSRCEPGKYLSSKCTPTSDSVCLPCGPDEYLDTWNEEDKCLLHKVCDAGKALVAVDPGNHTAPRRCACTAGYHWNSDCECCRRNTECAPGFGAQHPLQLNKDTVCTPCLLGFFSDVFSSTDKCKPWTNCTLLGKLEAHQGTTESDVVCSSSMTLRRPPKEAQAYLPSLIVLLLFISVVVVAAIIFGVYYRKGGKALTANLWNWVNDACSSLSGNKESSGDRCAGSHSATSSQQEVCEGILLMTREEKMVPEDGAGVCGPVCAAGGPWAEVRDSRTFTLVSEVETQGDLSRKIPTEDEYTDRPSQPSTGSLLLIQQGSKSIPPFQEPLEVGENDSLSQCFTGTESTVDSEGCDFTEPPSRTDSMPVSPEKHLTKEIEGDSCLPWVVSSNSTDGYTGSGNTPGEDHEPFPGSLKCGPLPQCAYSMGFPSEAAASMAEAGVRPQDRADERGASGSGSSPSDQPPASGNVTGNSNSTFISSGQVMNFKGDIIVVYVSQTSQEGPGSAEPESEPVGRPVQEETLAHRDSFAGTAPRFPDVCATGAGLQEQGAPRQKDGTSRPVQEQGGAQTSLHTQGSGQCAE

B1: pFL249-L10u (scFv)
scFv: QVQLQQSGAELASPGASVKLSCKASGYTFTTYWLQWVKQRPGQGLEWIGAIYPGPGNTKYTQKFKDKATLTADKSASTAYMQLNSLTSEDSAVYYCARRGSRRGIAYWGQGTLVTVSAASSGGGGSGGGGSGGGGSSNIVLTQSPASLSVSLGQRATISCRASESVDSYGRSFMHWYQQRPGQAPKLLIYLASNLESGVPARFSGSGSRTDFTLTISSVEAEDEATYYCQQDNEDPYTFGGGTKLEIK
notes: scFv in IPTG-induced E. coli supernatant, screened by ELISA; also called L10u scFv clone of the VL library; not shown: c-myc tag and his tag of vector pFL249
B2: pFL249-L37 (scFv)
scFv: B1 scFv with R180K, A201S, S218A, E224A
notes: scFv in IPTG-induced E. coli supernatant, screened by ELISA; also called L37 scFv clone of the VL library; not shown: c-myc tag and his tag of vector pFL249
B3: pFL249-L10 (scFv)
scFv: B1 scFv with K186R
notes: scFv in IPTG-induced E. coli supernatant, screened by ELISA; also called L10 scFv clone of the VL library; not shown: c-myc tag and his tag of vector pFL249
B4: pFL249-L37u (scFv)
scFv: B1 scFv with R180K, A201S, S218R, E224A
notes: scFv in IPTG-induced E. coli supernatant, screened by ELISA; also called L37u scFv clone of the VL library; not shown: c-myc tag and his tag of vector pFL249
B5: recombinant human RANKL (ligand)
chain: HHHHHHHHHHGSQHIRAEKAMVDGSWLDLAKRSKLEAQPFAHLTINATDIPSGSHKVSLSSWYHDRGWAKISNMTFSNGKLIVNQDGFYYLYANICFRHHETSGDLATEYLQLMVYVTKTSIKIPSSHTLMKGGSTKYWSGNSEFHFYSINVGGFFKLRSGEEISIEVSNPSLLDPDQDATYFGAFKVRDID
B6: G12 (antibody, human IgG2, kappa, V domains shown)
VH: QVQLVQSGAELKKPGASVKLSCKASGYTFTTYWLQWVRQAPGQGLEWMGAIYPGPGNTKYTQKFKDRFTITADTSKSTAYMQLNSLKSEDSAVYYCARRGSRRGIAYWGQGTLVTVSA
VL: NIVLTQSPASLSVSLGQRATISCRASESVDSYGRSFMHWYQQRPGQAPKLLIYLASNLESGVPARFSGSGSRTDFTLTISSVEAEDEATYYCQQDNEDPYTFGGGTKLEIKG
B7: G14 (antibody, human IgG2, kappa, V domains shown)
VH: B6 VH with L11V, L20V, F68V, T74E, K76T, Q82E, N84S, K87R, S91T
VL: DIVMTQSPDSLAVSLGERATINCRASESVDSYGRSFMHWYQQKPGQAPRLLIYLASNLESGVPSRFSGSGSGTDFTLTINSLEAEDAATYYCQQDNEDPYTFGGGTKLEIKG
B8: G8 (antibody, human IgG2, kappa, V domains shown)
VH: B6 VH with K12V, K13Q, A40T, F68V, K76T, K87R
VL: B6 VL
B9: G4 (antibody, human IgG2, kappa, V domains shown)
VH: B6 VH with T74K
VL: B6 VL
B10: G15 (antibody, human IgG2, kappa, V domains shown)
VH: B6 VH with L11V, L20V, F68V, T74E, K76T, Q82E, N84S, K87R, S91T
VL: B6 VL with K49R
B11: G10 (antibody, human IgG2, kappa, V domains shown)
VH: B6 VH
VL: B6 VL with K49R
B12: RANK-Fc (Fc fusion)
chain: IAPPCTSEKHYEHLGRCCNKCEPGKYMSSKCTTTSDSVCLPCGPDEYLDSWNEEDKCLLHKVCDTGKALVAVVAGNSTTPRRCACTAGYHWSQDCECCRRNTECAPGLGAQHPLQLNKDTVCKPCLAGYFSDAFSSTDKCRPWTNCTFLGKRVEHHGTEKSDAVCSSSLPARKPPNEPHVYLP
notes: Bought from R & D Systems; also called receptor RANK-Fc; not shown: Human IgG Fc part and any linker of the bought R & D Systems RANK-Fc
B13: commercial hRANKL standard (ligand, human, UniProt O14788 140-317, looked up)
chain: IRAEKAMVDGSWLDLAKRSKLEAQPFAHLTINATDIPSGSHKVSLSSWYHDRGWAKISNMTFSNGKLIVNQDGFYYLYANICFRHHETSGDLATEYLQLMVYVTKTSIKIPSSHTLMKGGSTKYWSGNSEFHFYSINVGGFFKLRSGEEISIEVSNPSLLDPDQDATYFGAFKVRDID
B14: pFL249-H16u (scFv)
scFv: QVQLVQSGAELKKPGASVKLSCKASGYTFTTYWLQWVRQAPGQGLEWMGAIYPGPGNTKYTQKFKDRFTITADTSKSTAYMQLNSLKSEDSAVYYCARRGSRRGIAYWGQGTLVTVSAASSGGGGSGGGGSGGGGSSNIVLTQSPASLAVSLGQRATISCRASESVDSYGRSFMHWYQQRPGQPPTLLIYLASNLESGVPVRFSGSGSRTDFTLTIDPVEADDAATYYCQQDNEDPYTFGGGTKLEIK
notes: scFv in IPTG-induced E. coli supernatant, screened by ELISA; also called H16u scFv clone of the VH library; not shown: c-myc tag and his tag of vector pFL249
B15: pFL249-H114 (scFv)
scFv: B14 scFv with K12V, K13Q, A40T, F68V, K76T, K87R
notes: scFv in IPTG-induced E. coli supernatant, screened by ELISA; also called H114 scFv clone of the VH library; not shown: c-myc tag and his tag of vector pFL249
B16: pFL249-H16 (scFv)
scFv: B14 scFv with T74K
notes: scFv in IPTG-induced E. coli supernatant, screened by ELISA; also called H16 scFv clone of the VH library; not shown: c-myc tag and his tag of vector pFL249

Test [1] has as its target B5. The test can be described thus: ELISA, scFv supernatant on coated hRANKL, anti-c-myc-HRP. The protocol:
For VH, VL libraries, 5×96 clones selected randomly from SOBAG cloning plates obtained in the third round and the fourth round are vaccinated on 96-deep-well plates respectively, 400 μl 2×YT-AG medium is contained in each well, the bacterial liquid is cultivated with shaking, at 30° C., 200 rpm overnight. The next day, the bacterial liquid on the deep-well plate is transferred by 1:50 to a new 96-deep-well plate containing 400 μl 2×YT-AG fresh medium. The bacterial liquid is cultivated with shaking at 37° C., 200 rpm until OD600 is about 0.8 (for about 3 hours). The bacterial is collected through 1500 g centrifugation for 10 minutes, the supernatant is removed, and the bacterial is resuspended with 400 μl of sterile fresh 2×YT-AI (I refers to IPTG, with a final concentration of […]) culture medium, the suspension is cultivated with shaking at 30° C., 200 rpm overnight (that is, the expression of scFv is induced overnight). The expressed inductively scFv supernatant on the deep-well plate is centrifuged at 3000 g for 20 min, 300 μl supernatant is transferred to a clean 96-well cell plate for backup.
The plates are washed three times with PBST (containing 0.05% Tween 20). The plates are closed with blocking solution (PBS solution containing 2% (WN) of BSA) for 1˜1.5 hours at room temperature. […] The closed microtiter plate is incubated for 2 hours at room temperature, washed three times with PBST.

In a further test the target is T1, RANK on RAW264.7 cells. The test can be described thus: cell-based or functional assay.
For test [2], the target named is B5. The test can be described thus: cell-based or functional assay.
The target of test [3] is B5. The test can be described thus: cell-based or functional assay. This is another data set of the same source.
Test [4] deals with B5. The test can be described thus: ELISA, coated recombinant human RANKL, RANK-Fc titrated, anti-human IgG-Fc. As to the method:
(§1) The samples are diluted to 1 μg/ml, was added 100 and incubated overnight at 4° C. RANK-Fc gradient diluted from 10 μg/ml is added, 1:20,000 dilution of secondary antibody (goat anti-human IgG-Fc) is added, the sample is incubated for 1 hour at room temperature, is colored using TMB chromogenic color system. Absorbance value to each well of the 96-well plate is measured on the multifunction microplate reader with a measurement wavelength of 450 nm, a reference wavelength of 630 nm, absorbance value to each well (OD)=OD450 nm-OD630 nm.

The target in test [5] is B13. The test can be described thus: ELISA, coated commercial hRANKL standard, RANK-Fc titrated, anti-human IgG-Fc. The protocol:
as §1

The target in test [6] is B5. Kind of test: ELISA, scFv supernatant on coated hRANKL, anti-c-myc-HRP; threshold of the clones sent for sequencing. The protocol:
The plates are washed three times with PBST (containing 0.05% Tween 20). The plates are closed with blocking solution (PBS solution containing 2% (WN) of BSA) for 1˜1.5 hours at room temperature. […] The closed microtiter plate is incubated for 2 hours at room temperature, washed three times with PBST. […] After the microtiter plate is washed six times with PBST, TMB substrate (purchased from Cell Signaling Technology, Cat. NO.7004) is added, and the samples are colored at room temperature for 10 minutes, 50 μl 2 M HCl is added in each well to terminate the color, and OD450 nm reading is detected using the M5 equipment.
If OD450>0.4, it is considered as a positive coloration.

Positions count from the first letter of the chain named.

As to B1, the binding result in the test with recombinant human RANKL [1] is “binds”.
Turning to B2, the binding result with recombinant human RANKL [1] is reported as “binds”.
On the same count and under the same terms, with B3 the entry was “binds”; with B4, “binds”.
With B5, the “EC50 of inducing RAW264.7 cells to be differentiated into osteoclasts (tartrate-resistant acid phosphatase, pNPP)” value in the test with RANK on RAW264.7 cells is 113 ng/ml.
As to B6, the “IC50 (ng/ml) in RAW264.7 cells, osteoclast differentiation induced by RANKL” value in the test with recombinant human RANKL [2] was roughly 1060 ng/mL.
With B7, in the test with recombinant human RANKL [2], the “IC50 (ng/ml) in RAW264.7 cells, osteoclast differentiation induced by RANKL” value is roughly 517 ng/mL. Besides, the “IC50 for inhibiting hRANKL induced RAW264.7 cell differentiation” value with recombinant human RANKL [3] is 0.247 µg/mL.
The matching figures for B8: roughly 573 ng/mL and 0.329 µg/mL.
On to B9, for which, in the test with recombinant human RANKL [2], the “IC50 (ng/ml) in RAW264.7 cells, osteoclast differentiation induced by RANKL” value was roughly 1080 ng/mL.
Take B10: the “IC50 for inhibiting hRANKL induced RAW264.7 cell differentiation” value with recombinant human RANKL [3] is 0.257 µg/mL.
For the molecule B11, the “IC50 (ng/ml) in RAW264.7 cells, osteoclast differentiation induced by RANKL” value with recombinant human RANKL [2] came to 695 ng/mL.
In the case of B12, the EC50 in the test with recombinant human RANKL [4] was 0.0109 µg/mL; in test [5], 0.0056 µg/mL.
For B13, in the test with RANK on RAW264.7 cells, the “EC50 of inducing RAW264.7 cells to be differentiated into osteoclasts (tartrate-resistant acid phosphatase, pNPP)” value came to 35.7 ng/ml.
Regarding B14, in the test with recombinant human RANKL [6], the OD450 turned out to be 1.2.
On the same count and under the same terms, with B15 the figure was 1.2; with B16, 1.2.
